{"source": "the RNAGym collection of RNA variant scans (doi:10.1073/pnas.2313332121)", "parents": {"B1": {"name": "TPR 5TU (parent)", "chain": "GGAUCUUCUCGAUCUAACAAAAAAGACAAAUCUGCCACAAAGCUUGAGAGCAUCUUCGGAUGCAGAGGCGGCAGCCUUCGGUGGCGCGAUAGCGCCAACGUUCUCAACUAUGACACGCAAAACGCGUGCUCCGUUGAAUGGAGUUUAUCAUG"}}, "note": "This sample holds only a part of the variants without activity."}
{"variants_of": "B1", "test": "polymerase ribozyme fitness, log enrichment relative to wild type (log ratio); higher = more active; in vitro selection for triplet polymerase activity", "in_short": "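The heterodimeric triplet polymerase ribozyme's subunits were each mutagenized into PCR-built libraries and transcribed. Every library was selected once, in triplicate, by annealing with a biotinylated primer, the partner subunit and triplets, incubating frozen at −7 °C, gel-excising extended constructs, capturing on streptavidin beads and running RT-PCR. Input and output libraries were Illumina-sequenced, with genotypes kept only at ≥10 input reads and ≥1 read per output. Fitness, from inverse-variance-weighted replicate averages, is the base-2 logarithm of genotype enrichment over wild-type enrichment.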"}
{"variant": "A22G U53G C54G U55C A73G A91C C105U C116U U127G U135C", "polymerase ribozyme fitness (log ratio)": "≤ -4.2"}
{"variant": "A20U C35U U144C", "polymerase ribozyme fitness (log ratio)": -2.73}
{"variant": "A21C A41C C51U C85A", "polymerase ribozyme fitness (log ratio)": -3.05}
{"variant": "A22U A28U A47C C72G G84U C149A", "polymerase ribozyme fitness (log ratio)": "≤ -4.2"}
{"variant": "A22G G34C C95U A138G", "polymerase ribozyme fitness (log ratio)": "≤ -4.2"}
{"variant": "A22G A41G C51A C76A G94U A97U G141A", "polymerase ribozyme fitness (log ratio)": "≤ -4.2"}
{"variant": "A21G U56A", "polymerase ribozyme fitness (log ratio)": -0.198}
{"variant": "A21C C85G C87U U145G", "polymerase ribozyme fitness (log ratio)": -3.2}
{"variant": "A22G G84U G88U A89U", "polymerase ribozyme fitness (log ratio)": "≤ -4.2"}
{"variant": "A22U A29U A39U U55A C79A C93G", "polymerase ribozyme fitness (log ratio)": "≤ -4.2"}
{"variant": "A22C C87U C123G", "polymerase ribozyme fitness (log ratio)": -0.845}
{"variant": "A22C G86A", "polymerase ribozyme fitness (log ratio)": -1.57}
{"variant": "A20U C93G A121U A142U", "polymerase ribozyme fitness (log ratio)": "≤ -4.2"}
{"variant": "A21G A89G C99U", "polymerase ribozyme fitness (log ratio)": -1.34}
{"variant": "A22C A24U C54A U77A G84U", "polymerase ribozyme fitness (log ratio)": "≤ -4.2"}
{"variant": "A21U A23U", "polymerase ribozyme fitness (log ratio)": "≤ -4.2"}
{"variant": "A22C G70C", "polymerase ribozyme fitness (log ratio)": -4}
{"variant": "A22G G25U C38A A52G C96U", "polymerase ribozyme fitness (log ratio)": -2.43}
{"variant": "A22G", "polymerase ribozyme fitness (log ratio)": 0.56}
{"variant": "A22C", "polymerase ribozyme fitness (log ratio)": -0.18}
{"variant": "A22U", "polymerase ribozyme fitness (log ratio)": 0.491}
{"variant": "A21C G25C C36G C93G A115U U134A U146A", "polymerase ribozyme fitness (log ratio)": "≤ -4.2"}
{"variant": "A21C A24G A52G G67A C85A G141C", "polymerase ribozyme fitness (log ratio)": "≤ -4.2"}
{"variant": "A21G A52G C87U U90G A106G A107G", "polymerase ribozyme fitness (log ratio)": "≤ -4.2"}
{"variant": "A21C A52G C125A A142U", "polymerase ribozyme fitness (log ratio)": "≤ -4.2"}
{"variant": "A22U C38A G50U U56A C75G C93U U134A", "polymerase ribozyme fitness (log ratio)": "≤ -4.2"}
{"variant": "A21U C87A G117C A137C A142U", "polymerase ribozyme fitness (log ratio)": "≤ -4.2"}
{"variant": "A21G G42A C93U A110C", "polymerase ribozyme fitness (log ratio)": "≤ -4.2"}
{"variant": "A22C A60C G62U", "polymerase ribozyme fitness (log ratio)": -2.13}
{"variant": "A20U G62C G71A G117U U135G", "polymerase ribozyme fitness (log ratio)": "≤ -4.2"}
{"variant": "A22U C32U A47U G83A C125U", "polymerase ribozyme fitness (log ratio)": "≤ -4.2"}
{"variant": "A21C G50C", "polymerase ribozyme fitness (log ratio)": -1.92}
{"variant": "A21C G34U U55A C132G U135A", "polymerase ribozyme fitness (log ratio)": "≤ -4.2"}
{"variant": "A21U G92C", "polymerase ribozyme fitness (log ratio)": 0.0736}
{"variant": "A22C C57U", "polymerase ribozyme fitness (log ratio)": -0.765}
{"variant": "A21C A52C C57U A64C A66C G71U A91U G100A C103U U127G", "polymerase ribozyme fitness (log ratio)": "≤ -4.2"}
{"variant": "A21U A52G G92A G124C", "polymerase ribozyme fitness (log ratio)": -3.99}
{"variant": "A22C G65C G80U A91G", "polymerase ribozyme fitness (log ratio)": "≤ -4.2"}
{"variant": "A22G G83C", "polymerase ribozyme fitness (log ratio)": -0.878}
{"variant": "A22C A37C G59U A89U C93G A119U", "polymerase ribozyme fitness (log ratio)": "≤ -4.2"}
{"variant": "A21C G25C U53A G74A C87G", "polymerase ribozyme fitness (log ratio)": "≤ -4.2"}
{"variant": "A21G A26U C87A C125G U135C U146C", "polymerase ribozyme fitness (log ratio)": "≤ -4.2"}
{"variant": "A22C G50C C57G G80U C87A A150U", "polymerase ribozyme fitness (log ratio)": "≤ -4.2"}
{"variant": "A21C C87A G141C", "polymerase ribozyme fitness (log ratio)": "≤ -4.2"}
{"variant": "A21U C35U G58A G68A A115G C118U G141A", "polymerase ribozyme fitness (log ratio)": "≤ -4.2"}
{"variant": "A21U G84A", "polymerase ribozyme fitness (log ratio)": 0.266}
{"variant": "A21C U31A A49C U61A C93U G133C", "polymerase ribozyme fitness (log ratio)": "≤ -4.2"}
{"variant": "A22C A40U G81U C93A C99U C116A", "polymerase ribozyme fitness (log ratio)": -3.08}
{"variant": "A22G U44A U53C G67C C99G G126A U134C", "polymerase ribozyme fitness (log ratio)": "≤ -4.2"}
{"variant": "A21U U33A A39G C87U G136C", "polymerase ribozyme fitness (log ratio)": "≤ -4.2"}
{"variant": "A21G A37G C95U A115G G143C", "polymerase ribozyme fitness (log ratio)": -3.82}
{"variant": "A21C G58A C93U U102G C131G", "polymerase ribozyme fitness (log ratio)": "≤ -4.2"}
{"variant": "A22G G59C C75G C108G A138G", "polymerase ribozyme fitness (log ratio)": "≤ -4.2"}
{"variant": "A20U A91U A115U", "polymerase ribozyme fitness (log ratio)": -4.17}
{"variant": "A22C G86A U101A G141A A142G", "polymerase ribozyme fitness (log ratio)": "≤ -4.2"}
{"variant": "A21C C35A C87U", "polymerase ribozyme fitness (log ratio)": -3.56}
{"variant": "A22G C32G U33G G94A A110C C116G", "polymerase ribozyme fitness (log ratio)": -4.15}
{"variant": "A21G A138G", "polymerase ribozyme fitness (log ratio)": -3.38}
{"variant": "A20U C79U", "polymerase ribozyme fitness (log ratio)": -3.19}
{"variant": "A21U G50C C57A A97G", "polymerase ribozyme fitness (log ratio)": -3.79}
{"variant": "A21U G34U C54G U61G C108G G140A U145C", "polymerase ribozyme fitness (log ratio)": -4.13}
{"variant": "A22U A23U G70U C85U A89C A120G U144A", "polymerase ribozyme fitness (log ratio)": "≤ -4.2"}
{"variant": "A21U C38U C63G G84U", "polymerase ribozyme fitness (log ratio)": -0.36}
{"variant": "A21G G50C A66C U82C G86C C114G A120C A150G", "polymerase ribozyme fitness (log ratio)": "≤ -4.2"}
{"variant": "A21C A40C U45A A73G G83U C96A", "polymerase ribozyme fitness (log ratio)": "≤ -4.2"}
{"variant": "A22G U56A C85U", "polymerase ribozyme fitness (log ratio)": -0.116}
{"variant": "A21G A23G G58C G59A C85G C103A C108U", "polymerase ribozyme fitness (log ratio)": "≤ -4.2"}
{"variant": "A21C C85U U102G C118U U144G U151A", "polymerase ribozyme fitness (log ratio)": "≤ -4.2"}
{"variant": "A22C A39U U139A", "polymerase ribozyme fitness (log ratio)": "≤ -4.2"}
{"variant": "A22U A24G C43U C57G G59A A89G G92C U135A", "polymerase ribozyme fitness (log ratio)": "≤ -4.2"}
{"variant": "A22C A40C G94A A119G", "polymerase ribozyme fitness (log ratio)": 0.789}
{"variant": "A22U C87A C99U C103G A142C", "polymerase ribozyme fitness (log ratio)": "≤ -4.2"}
{"variant": "A22U A89U C105U", "polymerase ribozyme fitness (log ratio)": 0.731}
{"variant": "A20U C57G G88U A89U", "polymerase ribozyme fitness (log ratio)": "≤ -4.2"}
{"variant": "A22C A26U C36U C54U C85U A98U A106G", "polymerase ribozyme fitness (log ratio)": "≤ -4.2"}
{"variant": "A22U C85U U134G G143C C149A", "polymerase ribozyme fitness (log ratio)": "≤ -4.2"}
{"variant": "A21U C57A", "polymerase ribozyme fitness (log ratio)": 0.469}
{"variant": "A21G A22U U53A C85G C132G", "polymerase ribozyme fitness (log ratio)": "≤ -4.2"}
{"variant": "A21U A41C G65A C85A", "polymerase ribozyme fitness (log ratio)": "≤ -4.2"}
{"variant": "A21U A39G A52C G58A G80A G83U C85A C93A", "polymerase ribozyme fitness (log ratio)": "≤ -4.2"}
{"variant": "A21C C57A A91G C99U G140C", "polymerase ribozyme fitness (log ratio)": "≤ -4.2"}
{"variant": "A21C A22U U53A C85A G124A", "polymerase ribozyme fitness (log ratio)": -2.42}
{"variant": "A22G C32U C103G A147G G152A", "polymerase ribozyme fitness (log ratio)": "≤ -4.2"}
